Reference: patent US8003342

Assays:
[1] = biological target: T1, rat brain farnesyl:protein transferase (rat, UniProt Q04631 2-377; Q02293 1-437); test: cell-based or functional assay
[2] = biological target: T1, rat brain farnesyl:protein transferase; test: cell-based or functional assay; remark: listed apart in the source

| Concentration for 50% Inhibition [1] [µM] | fold decrease of affinity against CVIM, from the concentration required for 50% inhibition [2] [fold] | Binder |
| --- | --- | --- |
| 100 |  | CIKS |
|  | 30 | CVAM |
